# Earlier results as cited in publication PMC7232523.
# Key:
# [1] = target: IL-4Ra (Homo sapiens) (UniProt P24394)
# [2] = target: IL-13Ra1/IL-4Ra (Homo sapiens) (UniProt P78552)
# UniProt P78552, sequence (P78552 22-343, chain 1 of 2): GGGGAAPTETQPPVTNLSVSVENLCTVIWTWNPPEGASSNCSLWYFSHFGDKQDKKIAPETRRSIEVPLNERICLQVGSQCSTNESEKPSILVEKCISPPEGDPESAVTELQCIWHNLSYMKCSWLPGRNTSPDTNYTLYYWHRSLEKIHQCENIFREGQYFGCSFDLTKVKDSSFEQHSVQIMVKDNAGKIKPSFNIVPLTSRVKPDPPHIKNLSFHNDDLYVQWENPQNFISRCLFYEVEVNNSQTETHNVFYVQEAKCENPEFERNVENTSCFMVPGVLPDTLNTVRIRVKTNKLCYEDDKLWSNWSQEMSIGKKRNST
# UniProt P78552, sequence (P24394 26-232, chain 2 of 2, further chain): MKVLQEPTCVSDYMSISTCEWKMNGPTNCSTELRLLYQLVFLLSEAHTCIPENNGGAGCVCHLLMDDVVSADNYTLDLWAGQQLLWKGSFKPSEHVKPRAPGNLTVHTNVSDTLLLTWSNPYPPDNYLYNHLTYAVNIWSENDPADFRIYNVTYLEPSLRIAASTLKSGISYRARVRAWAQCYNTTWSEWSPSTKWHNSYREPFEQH
# UniProt P24394, sequence (P24394 26-232): as the sequence (P24394 26-232, chain 2 of 2, further chain) above
Substance,Kd [1] [pM],Kd [2] [pM]
IL-4 (from UniProt P05112),100,–
IL-13 (from UniProt P35225),–,35
